Consider one substance from US20210388337A1, “PROTEIN-POLYMER CONJUGATES AND METHODS FOR THEIR PREPARATION” (Carnegie Mellon University, priority 2018, published 2021).

This test concerns the target Biotin-aprotinin (UniProt P00974). Put plainly: stopped-flow tryptophan fluorescence, avidin 0.5 µM, biotin-protein 5.0 µM.

Chain of Native avidin (P02701 25-152 limits assumed): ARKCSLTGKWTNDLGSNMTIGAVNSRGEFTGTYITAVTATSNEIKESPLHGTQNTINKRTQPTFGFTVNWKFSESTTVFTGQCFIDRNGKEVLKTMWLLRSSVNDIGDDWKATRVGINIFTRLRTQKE

Take “Native avidin (from UniProt P02701 25-152)”: the k (kobs, observed first-order rate constant) is 73.5 s⁻¹.
